Experimental data published in PMC7229184, “Cryo-EM structure of the volume-regulated anion channel LRRC8D isoform identifies features important for substrate permeation” (Communications Biology, 2020).

Molecular target: the molecule itself
Assay: cryo-EM structure; purified HsLRRC8D in 50 mM Tris pH 8.0, 150 mM NaCl, 5 mM dithiothreitol, 0.1% digitonin, 3 mg/mL, vitrified; single-particle analysis, C2 symmetry imposed; homo-hexamer ('dimer of trimers')

B1: human LRRC8D (leucine-rich repeat-containing 8 isoform D) wild-type protein (natural protein)
chain: MFTLAEVASLNDIQPTYRILKPWWDVFMDYLAVVMLMVAIFAGTMQLTKDQVVCLPVLPSPVNSKAHTPPGNAEVTTNIPKMEAATNQDQDGRTTNDISFGTSAVTPDIPLRATYPRTDFALPNQEAKKEKKDPTGRKTNLDFQQYVFINQMCYHLALPWYSKYFPYLALIHTIILMVSSNFWFKYPKTCSKVEHFVSILGKCFESPWTTKALSETACEDSEENKQRITGAQTLPKHVSTSSDEGSPSASTPMINKTGFKFSAEKPVIEVPSMTILDKKDGEQAKALFEKVRKFRAHVEDSDLIYKLYVVQTVIKTAKFIFILCYTANFVNAISFEHVCKPKVEHLIGYEVFECTHNMAYMLKKLLISYISIICVYGFICLYTLFWLFRIPLKEYSFEKVREESSFSDIPDVKNDFAFLLHMVDQYDQLYSKRFGVFLSEVSENKLREISLNHEWTFEKLRQHISRNAQDKQELHLFMLSGVPDAVFDLTDLDVLKLELIPEAKIPAKISQMTNLQELHLCHCPAKVEQTAFSFLRDHLRCLHVKFTDVAEIPAWVYLLKNLRELYLIGNLNSENNKMIGLESLRELRHLKILHVKSNLTKVPSNITDVAPHLTKLVIHNDGTKLLVLNSLKKMMNVAELELQNCELERIPHAIFSLSNLQELDLKSNNIRTIEEIISFQHLKRLTCLKLWHNKIVTIPPSITHVKNLESLYFSNNKLESLPVAVFSLQKLRCLDVSYNNISMIPIEIGLLQNLQHLHITGNKVDILPKQLFKCIKLRTLNLGQNCITSLPEKVGQLSQLTQLELKGNCLDRLPAQLGQCRMLKKSGLVVEDHLFDTLPLEVKEALNQDINIPFANGI
notes: Residues of the TEV site may remain at the C-terminus after cleavage; also called HsLRRC8D; not shown: GFP, C-terminal, cleaved; His8, C-terminal, cleaved
- stoichiometry N: 6
